Key:
[1] = biological target: CXCR2 on purified human neutrophils (human) (UniProt P25025); assay: cell-based or functional assay
[2] = biological target: CXCR1 on CXCR1-transfected HEK293 cells (UniProt P25024); assay: cell-based or functional assay
UniProt P25024, sequence (P25024 whole entry): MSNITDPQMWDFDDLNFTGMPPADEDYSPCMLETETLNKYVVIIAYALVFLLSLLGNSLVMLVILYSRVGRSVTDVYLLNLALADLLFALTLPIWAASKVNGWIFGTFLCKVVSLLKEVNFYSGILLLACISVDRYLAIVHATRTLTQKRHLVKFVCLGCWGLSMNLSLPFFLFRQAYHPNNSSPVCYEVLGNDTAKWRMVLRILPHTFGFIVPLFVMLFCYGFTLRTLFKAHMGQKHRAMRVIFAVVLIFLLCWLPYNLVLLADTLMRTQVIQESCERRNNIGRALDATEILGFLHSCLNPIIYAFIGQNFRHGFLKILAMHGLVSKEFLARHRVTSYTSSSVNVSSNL

UniProt P25025, sequence (P25025 whole entry): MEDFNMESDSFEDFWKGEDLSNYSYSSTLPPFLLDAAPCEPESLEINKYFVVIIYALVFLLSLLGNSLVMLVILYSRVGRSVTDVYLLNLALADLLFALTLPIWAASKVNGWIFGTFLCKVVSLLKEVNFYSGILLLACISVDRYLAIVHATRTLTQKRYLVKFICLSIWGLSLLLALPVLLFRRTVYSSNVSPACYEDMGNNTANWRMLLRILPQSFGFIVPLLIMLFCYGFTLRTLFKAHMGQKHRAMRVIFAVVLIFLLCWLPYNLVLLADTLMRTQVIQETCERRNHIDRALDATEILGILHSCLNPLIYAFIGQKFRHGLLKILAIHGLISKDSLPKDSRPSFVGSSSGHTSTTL

Substance “human GS-CXCL8(3-72)K11R/G31P (from UniProt P10145 30-99) (ligand)” has an intracellular Ca^++ flux in human neutrophils induced by CXCL1 (100 ng/ml), G31P at 10 ng/ml [1] of under 95 % reduced, an intracellular Ca^++ flux in human neutrophils induced by CXCL5 (100 ng/ml), G31P at 10 ng/ml [1] of under 95 % reduced and a CXCL8-induced chemotactic responses of CXCR1-transfected HEK293 cells (modified Boyden chamber), G31P at 10 ng/ml [2] of 80 % blocked.
